Test results from patent publication US20060051842A1 (AMRAD OPERATIONS, published 2006).
One block for each binder: values may come before it.

What was measured:
[1] = molecular target: T1, LIF receptor and gp130 expressed by parental M1 cells (mouse; murine, UniProt P42703 44-1092; Q00560 23-917); experiment: binding of 125I-OSM to parental M1 cells
T1 construct: whole, on cells; Untransfected cells

[2] = molecular target: T2, Nr1 (murine IL-11 receptor α-chain) expressed in Ba/F3 cells (murine, UniProt Q64385 24-432); experiment: binding of 125I-OSM to transfected Ba/F3 cells
T2 construct: also called Ba/F3 cells expressing Nr1; Ba/F3 Nr1
T2 sequence: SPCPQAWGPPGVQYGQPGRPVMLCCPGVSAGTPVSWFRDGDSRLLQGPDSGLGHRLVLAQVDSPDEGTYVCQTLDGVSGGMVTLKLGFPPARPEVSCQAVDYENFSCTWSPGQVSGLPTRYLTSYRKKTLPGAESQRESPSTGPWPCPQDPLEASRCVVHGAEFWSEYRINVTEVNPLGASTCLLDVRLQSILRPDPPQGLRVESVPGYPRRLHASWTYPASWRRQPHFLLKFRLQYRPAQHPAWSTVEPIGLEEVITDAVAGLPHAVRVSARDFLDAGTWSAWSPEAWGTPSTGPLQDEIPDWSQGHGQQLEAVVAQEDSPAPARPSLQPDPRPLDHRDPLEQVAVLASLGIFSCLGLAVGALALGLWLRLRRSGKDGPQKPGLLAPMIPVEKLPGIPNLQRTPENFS

[3] = molecular target: T3, Nr1, gp130 and the LIF receptor co-expressed in Ba/F3 cells (murine; mouse; human, UniProt Q00560 23-917; P42702 45-1097); experiment: competition with 125I-IL-11 on Ba/F3 cells expressing Nr1, gp130 and the LIF receptor
T3 construct: whole, on cells; also called Ba/F3 Nr1/gp130/LIF receptor
Experimental: (§1) After 18 hours incubation on ice, bound and free IL-11 were separated by centrifugation through foetal calf serum. Bound and free ¹²⁵I-IL-11 were quantitated in a γ-counter and the amount of binding was expressed as a percentage of that observed in the absence of competitor.

[4] = molecular target: T4, Nr1 and gp130 co-expressed in Ba/F3 cells (murine; mouse, UniProt Q00560 23-917); experiment: competition with 125I-IL-11 on Ba/F3 cells expressing Nr1 and gp130; competitor of labelled IL-11
T4 construct: whole, on cells; also called Ba/F3 Nr1/gp130; Ba/F3 cells expressing the murine IL-11rα and murine gp130
T4 sequence 1: T2 sequence
T4 sequence 2: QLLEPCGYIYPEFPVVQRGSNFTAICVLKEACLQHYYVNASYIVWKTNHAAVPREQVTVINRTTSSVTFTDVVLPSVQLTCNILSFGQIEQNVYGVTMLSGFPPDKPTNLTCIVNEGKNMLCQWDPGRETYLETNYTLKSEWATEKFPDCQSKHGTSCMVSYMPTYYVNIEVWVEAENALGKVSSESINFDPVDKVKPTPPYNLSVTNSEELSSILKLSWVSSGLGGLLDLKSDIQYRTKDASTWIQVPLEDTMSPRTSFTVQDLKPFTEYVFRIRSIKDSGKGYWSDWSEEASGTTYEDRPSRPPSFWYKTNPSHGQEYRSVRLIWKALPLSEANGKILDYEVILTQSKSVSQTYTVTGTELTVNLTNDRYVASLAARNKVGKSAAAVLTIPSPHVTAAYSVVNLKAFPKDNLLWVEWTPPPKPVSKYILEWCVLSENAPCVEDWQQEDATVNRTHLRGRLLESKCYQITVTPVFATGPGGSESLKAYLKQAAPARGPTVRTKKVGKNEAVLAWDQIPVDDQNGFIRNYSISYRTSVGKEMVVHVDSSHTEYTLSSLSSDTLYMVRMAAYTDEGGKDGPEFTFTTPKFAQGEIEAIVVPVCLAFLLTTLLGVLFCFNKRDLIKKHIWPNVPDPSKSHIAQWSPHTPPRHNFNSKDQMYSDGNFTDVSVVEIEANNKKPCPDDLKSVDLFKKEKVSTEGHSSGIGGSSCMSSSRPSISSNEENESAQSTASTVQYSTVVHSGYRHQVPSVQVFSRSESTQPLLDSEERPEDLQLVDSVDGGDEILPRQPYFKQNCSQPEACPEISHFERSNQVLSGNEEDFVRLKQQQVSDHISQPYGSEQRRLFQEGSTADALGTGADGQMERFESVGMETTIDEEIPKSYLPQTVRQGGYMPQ
Experimental: as §1

[5] = molecular target: T2, Nr1 (murine IL-11 receptor α-chain) …; experiment: Scatchard analysis of 125I-IL-11 saturation binding to Ba/F3 cells expressing Nr1
Text: FIGS. 4A-4D are graphical representations of scatchard analyses of saturation isotherms of IL-11 binding to various cell lines; (4A) parental Ba/F3 cells (●), Ba/F3 cells expressing Nr1 (◯), Ba/F3 cells expressing Nr1 and the LIF receptor (▪), (4B) Ba/F3 cells expressing the LIF receptor and gp130 (▪), Ba/F3 cells expressing Nr1 and gp130 (●), Ba/F3 cells expressing the Nr1, LIF receptor and gp130 (◯), (4C) parental M1 cells (▪), M1 cells expressing Nr1 (◯), and (4D) 3T3-L1 cells (●) were incubated with various concentrations of labelled IL-11 in the presence of absence of a 10-100-fold excess of unlabelled IL-11. After 18 hours incubation on ice, bound and free IL-11 were separated by centrifugation through foetal calf serum. Bound and free ¹²⁵I-IL-11 was quantitated in a γ-counter and the data was depicted as a Scatchard transformation. In each case data were normalised for cell number and shown as binding to 10⁶ cells.

[6] = molecular target: T1, LIF receptor and gp130 expressed by …; experiment: binding of 125I-labelled human IL-11 to cells
[7] = molecular target: T1, LIF receptor and gp130 expressed by …; experiment: binding of 125I-LIF to parental M1 cells
[8] = molecular target: T2, Nr1 (murine IL-11 receptor α-chain) …; experiment: binding of 125I-LIF to transfected Ba/F3 cells

T1 sequence (P42703 44-1092, one chain of several): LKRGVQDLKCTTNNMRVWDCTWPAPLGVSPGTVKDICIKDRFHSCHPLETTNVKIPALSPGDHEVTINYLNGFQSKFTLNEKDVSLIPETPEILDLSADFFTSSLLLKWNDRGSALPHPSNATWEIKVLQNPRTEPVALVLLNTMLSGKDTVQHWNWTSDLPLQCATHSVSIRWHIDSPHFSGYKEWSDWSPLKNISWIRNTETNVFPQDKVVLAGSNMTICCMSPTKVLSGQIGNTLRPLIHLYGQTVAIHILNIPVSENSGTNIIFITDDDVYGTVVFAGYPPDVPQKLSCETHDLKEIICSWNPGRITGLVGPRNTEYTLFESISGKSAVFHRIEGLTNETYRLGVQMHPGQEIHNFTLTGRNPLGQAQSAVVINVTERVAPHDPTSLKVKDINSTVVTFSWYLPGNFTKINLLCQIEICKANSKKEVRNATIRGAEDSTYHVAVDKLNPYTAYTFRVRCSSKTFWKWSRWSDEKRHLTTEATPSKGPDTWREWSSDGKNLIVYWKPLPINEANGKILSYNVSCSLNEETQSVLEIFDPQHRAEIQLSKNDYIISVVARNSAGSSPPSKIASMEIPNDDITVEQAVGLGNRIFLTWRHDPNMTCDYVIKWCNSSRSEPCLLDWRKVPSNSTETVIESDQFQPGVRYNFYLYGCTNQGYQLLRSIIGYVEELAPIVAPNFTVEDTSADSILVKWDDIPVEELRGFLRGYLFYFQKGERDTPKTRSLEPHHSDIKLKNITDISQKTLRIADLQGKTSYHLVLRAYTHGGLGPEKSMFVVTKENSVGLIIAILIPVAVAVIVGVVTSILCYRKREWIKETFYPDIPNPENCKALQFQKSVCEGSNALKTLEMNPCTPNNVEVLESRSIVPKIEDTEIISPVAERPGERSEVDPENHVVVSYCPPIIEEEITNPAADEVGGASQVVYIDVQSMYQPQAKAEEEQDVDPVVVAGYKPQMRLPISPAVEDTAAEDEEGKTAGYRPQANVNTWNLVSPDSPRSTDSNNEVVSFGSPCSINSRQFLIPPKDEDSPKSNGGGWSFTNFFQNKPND
T3 sequence (P42702 45-1097, one chain of several): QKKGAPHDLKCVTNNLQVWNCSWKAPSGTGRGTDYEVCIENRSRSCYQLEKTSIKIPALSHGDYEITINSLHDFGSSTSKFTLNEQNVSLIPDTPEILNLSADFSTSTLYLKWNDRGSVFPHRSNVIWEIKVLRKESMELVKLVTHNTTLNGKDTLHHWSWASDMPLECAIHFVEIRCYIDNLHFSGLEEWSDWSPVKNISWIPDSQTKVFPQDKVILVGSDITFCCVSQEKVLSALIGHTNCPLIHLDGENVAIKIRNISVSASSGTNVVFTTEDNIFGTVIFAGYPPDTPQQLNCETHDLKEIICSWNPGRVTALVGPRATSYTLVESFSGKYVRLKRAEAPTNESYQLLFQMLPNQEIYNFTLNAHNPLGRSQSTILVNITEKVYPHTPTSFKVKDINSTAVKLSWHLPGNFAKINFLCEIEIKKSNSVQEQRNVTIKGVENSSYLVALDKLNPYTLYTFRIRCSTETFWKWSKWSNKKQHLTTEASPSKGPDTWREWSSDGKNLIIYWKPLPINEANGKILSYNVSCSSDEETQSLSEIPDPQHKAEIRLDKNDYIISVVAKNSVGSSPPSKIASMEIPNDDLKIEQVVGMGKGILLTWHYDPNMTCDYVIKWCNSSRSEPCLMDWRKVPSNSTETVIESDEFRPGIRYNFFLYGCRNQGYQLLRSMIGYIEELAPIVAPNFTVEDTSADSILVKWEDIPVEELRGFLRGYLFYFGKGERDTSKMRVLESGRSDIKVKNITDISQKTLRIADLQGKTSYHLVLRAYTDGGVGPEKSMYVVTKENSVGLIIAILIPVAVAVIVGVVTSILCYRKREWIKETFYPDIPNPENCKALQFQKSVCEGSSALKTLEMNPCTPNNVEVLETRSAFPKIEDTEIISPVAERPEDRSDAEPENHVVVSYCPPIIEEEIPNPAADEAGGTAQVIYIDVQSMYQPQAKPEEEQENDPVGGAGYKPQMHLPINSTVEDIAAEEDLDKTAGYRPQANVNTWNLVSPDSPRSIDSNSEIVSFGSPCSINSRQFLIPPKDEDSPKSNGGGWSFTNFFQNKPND

B1: human OSM (produced using the pGEX system) (ligand, UniProt P13725 26-221, looked up)
chain: AAIGSCSKEYRVLLGQLQKQTDLMQDTSRLLDPYIRIQGLDVPKLREHCRERPGAFPSEETLRGLGRRGFLQTLNATLGCVLHRLADLEQRLPKAQDLERSGLNIEDLEKLQMARPNILGLRNNIYCMAQLLDNSDTAEPTKAGRGASQPPTPTPASDAFQRKLEGCRFLHGYHRFMHSVGRVFSKWGESPNRSRR
modifications: 125I-labelled where used as labelled ligand
- binding result [1]: binds
- binding result [2]: no binding
- binding result [3]: binds
- binding result [4]: binds

B2: IL-11 (purchased from PeproTech; used in Examples 7, 8, 12 and 13) (ligand)
chain: PGPPPGPPRVSPDPRAELDSTVLLTRSLLADTRQLAAQLRDKFPADGDHNLDSLPTLAMSAGALGALQLPGVLTRLRADLLSYLRHVQWLRRAGGSSLKTLEPELGTLQARLDRLLRRLQLLMSRLALPQPPPDPPAPPLAPPSSAWGGIRAAHAILGGLHLTLDWAVRGLLLLKTRL
modifications: The tracer form (125I-IL-11) was radio-iodinated with monoiodinated Bolton-Hunter reagent on amino groups. The positions are not stated and the letters are unchanged.
notes: Species ambiguous: 'Murine' may apply to IL-3 only; also called labelled IL-11
- Kd [5]: ~0.01 nM

The next lines start with the values.

- binding result [6]: no binding
B3: N-terminal flag human IL-11 (expressed in COS-M6 cells, used in ligand binding studies) (ligand)
chain: DYKDDDDKPGPPPGPPRVSPDPRAELDSTVLLTRSLLADTRQLAAQLRDKFPADGDHNLDSLPTLAMSAGALGALQLPGVLTRLRADLLSYLRHVQWLRRAGGSSLKTLEPELGTLQARLDRLLRRLQLLMSRLALPQPPPDPPAPPLAPPSSAWGGIRAAHAILGGLHLTLDWAVRGLLLLKTRL
modifications: radio-iodinated (125I) with Bolton-Hunter reagent
notes: mature; also called radio-labelled human IL-11

- binding result [7]: binds
- binding result [8]: no binding
- binding result [3]: binds
B4: human LIF (produced using the pGEX system) (ligand)
chain: not shown
modifications: 125I-labelled where used as labelled ligand
